Kd data for one molecule are collected here from publication PMC12285911 (2025).

The assay concerns the target T1, ^FAMFAT10 (GG–FAT10 N-terminally labeled with fluorescein amidite by sortase) (human, 5-FAM on the N terminus (5-FAM conjugated to the N terminus of the peptide …, attached by sortase)).
T1 chain: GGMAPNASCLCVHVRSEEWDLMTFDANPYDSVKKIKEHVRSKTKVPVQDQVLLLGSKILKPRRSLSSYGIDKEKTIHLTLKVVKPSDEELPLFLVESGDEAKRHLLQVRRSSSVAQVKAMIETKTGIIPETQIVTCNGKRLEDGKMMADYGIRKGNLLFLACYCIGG
As to the kind of experiment: FP.

B1: NUB1^Δ1–175 (domain or fragment)
chain: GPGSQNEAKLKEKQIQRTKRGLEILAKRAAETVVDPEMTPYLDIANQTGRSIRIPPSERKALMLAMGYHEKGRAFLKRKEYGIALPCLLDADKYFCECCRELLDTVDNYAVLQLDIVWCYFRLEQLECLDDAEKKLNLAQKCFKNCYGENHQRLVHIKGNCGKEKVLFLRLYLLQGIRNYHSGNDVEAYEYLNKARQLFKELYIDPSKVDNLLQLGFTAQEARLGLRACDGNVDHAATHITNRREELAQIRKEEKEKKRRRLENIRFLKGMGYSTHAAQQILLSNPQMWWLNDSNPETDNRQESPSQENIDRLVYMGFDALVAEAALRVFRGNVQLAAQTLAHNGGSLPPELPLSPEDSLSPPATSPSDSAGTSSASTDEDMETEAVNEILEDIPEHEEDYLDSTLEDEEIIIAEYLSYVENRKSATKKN
One may read the Kd as the free concentration of one partner at which half of the binding sites on the other are occupied at equilibrium, for simple one-to-one binding. Turning to B1, the dissociation constant Kd was found to be 152 nM.
